B1: Myocardin-related transcription factor A (Mus musculus), Q8K4J6 (parent)
chain: MTLLEPEMLMMAVQSVLQLKLQQRRTREELVSQGIMPPLKSPAAFHEQRRSLERARTEDYLKRKIRSRPERAELVRMHILEETSAEPSLQAKQLKLKRARLADDLNEKIAQRPGPMELVEKNILPVESSLKEAIIVGQVNYPKVADSSSFDEDSSDALSPEQPASHESQGSVPSPLESRVSDPLPSATSISPTQVLSQLPMAPDPGETLFLAEQPPLPPAPLLPPSLANGSIVPTAKPAPTLIKQSQPKSASEKSQRSKKAKELKPKVKKLKYHQYIPPDQKQDKGAPAMDSSYAKILQQQQLFLQLQILNQQQQQQQQQHYNYQAILPAPPKPSAETPGSSAPTPSRSLSTSSSPSSGTPGPSGLARQSSTALAAKPGALPANLDDMKVAELKQELKLRSLPVSGTKTELIERLRAYQDQVSPAPGAPKAPATTSVLSKAGEVVVAFPAALLSTGSALVTAGLAPAEMVVATVTSNGMVKFGSTGSTPPVSPTPSERSLLSTGDENSTPGDAFGEMVTSPLTQLTLQASPLQIVKEEGARAASCCLSPGARAELEGLDKDQMLQEKDKQIEELTRMLQQKQQLVELLRLQLEQQKRAQQPAPASSPVKRESGFSSCQLSCQPQGSAHAFGSGLVVPTTNHGDTQAPAPESPPVVVKQEAGPPEPDLAPSSQLLLGSQGTSFLKRVSPPTLVTDSTGTHLILTVTNKSADGPGLPAGSPQQPLSQPGSPAPGPPAQMDLEHPPQPPFATPTSLLKKEPPGYEETVTQQPKQQENGSSSQHMDDLFDILIQSGEISADFKEPPSLPGKEKSPPAAAAYGPPLTPQPSPLSELPQAAPPPGSPTLPGRLEDFLESSTGLPLLTSGHEGPEPLSLIDDLHSQMLSSSAILDHPPSPMDTSELHFAPEPSSGMGLDLAVGHLDSMDWLELSSGGPVLSLAPLSTAAPSLFSMDFLDGHDLQLHWDSCL

Variants of: B1
Conditions: with acts_rabit ACTA1, P68135

effect of a mutation on the interaction	Variant
disrupting interaction	R24A

Variants of: B1
Conditions: with acts_rabit ACTA1, P68135
Remark: another data set of the same source

effect of a mutation on the interaction	Variant
increasing interaction	G114E;P115R

Variants of: B1
Conditions: with acts_rabit ACTA1, P68135
Remark: another data set of the same source

effect of a mutation on the interaction	Variant
disrupting interaction	L118A;I123A;L124A

Variants of: B1
Conditions: with acts_rabit ACTA1, P68135
Remark: another data set of the same source

effect of a mutation on the interaction	Variant
disrupting interaction	R24D;R25D

Variants of: B1
Conditions: with acts_rabit ACTA1, P68135
Remark: another data set of the same source

effect of a mutation on the interaction	Variant
decreasing interaction	P69R

Variants of: B1
Conditions: with acts_rabit ACTA1, P68135
Remark: another data set of the same source

effect of a mutation on the interaction	Variant
disrupting interaction	R112A

Variants of: B1
Conditions: with acts_rabit ACTA1, P68135
Remark: another data set of the same source

effect of a mutation on the interaction	Variant
disrupting interaction	L61A;I65A

Variants of: B1
Conditions: with acts_rabit ACTA1, P68135
Remark: another data set of the same source

effect of a mutation on the interaction	Variant
disrupting interaction	L105A;I109A

Variants of: B1
Conditions: with acts_rabit ACTA1, P68135
Remark: another data set of the same source

effect of a mutation on the interaction	Variant
disrupting interaction	G114E;P115Q;L118A;I123A;L124A

Variants of: B1
Conditions: with acts_rabit ACTA1, P68135
Remark: another data set of the same source

effect of a mutation on the interaction	Variant
disrupting interaction	R68A

Variants of: B1
Conditions: with acts_rabit ACTA1, P68135
Remark: another data set of the same source

effect of a mutation on the interaction	Variant
disrupting interaction	L74A;I79A;L80A

From IntAct's records for PubMed 19008859
